For one protein, Km results are on record in US5200335A (Forschungszentrum Juelich GmbH, priority 1990, dated 1993).

Substrate in data set [1]: CC(=O)C(C)(C)C
In words: purified protein, by the assay type. To be noted: pH 7.0; 30.0 °C.

Substrate in data set [2]: CCCCCCC(C)=O
In words: purified protein, by the assay type. The following applies: other: NADPH-dependent reductions, pH 7.0, 0.2 mM NADPH, partially purified enzyme, 30.0 °C.

Substrate in data set [3]: CC(=O)CCc1ccccc1
In words: purified protein, by the assay type. To be noted: other: NADPH-dependent reductions, pH 7.0, 0.2 mM NADPH, partially purified enzyme, 30.0 °C.

Substrate in data set [4]: CC(=O)c1ccc(Cl)cc1
Nature of the data set: purified protein, by the assay type. To be noted: pH 7.0; 30.0 °C.

Substrate in data set [5]: NC(=O)C1=CN([C@@H]2O[C@H](COP(=O)(O)OP(=O)(O)OC[C@H]3O[C@@H](n4cnc5c(N)ncnc54)[C@H](OP(=O)(O)O)[C@@H]3O)[C@@H](O)[C@H]2O)C=CC1
Nature of the data set: purified protein, by the assay type. The following applies: other: NADPH 13 to 380 μM, 5.3 mM acetophenone, pH 7.0, 30° C.

Substrate in data set [6]: CC(=O)c1ccccc1
In words: purified protein, by the assay type. The following applies: other: acetophenone 50-7100 μM, 0.2 mM NADPH, pH 7.0, 30° C.

Substrate in data set [7]: CCC(=O)c1ccccc1
In words: purified protein, by the assay type. To be noted: pH 7.0; 30.0 °C.

Substrate in data set [8]: CC(C)=O
In words: purified protein, by the assay type. The following applies: other: NADPH-dependent reductions, pH 7.0, 0.2 mM NADPH, partially purified enzyme, 30.0 °C.

Substrate in data set [9]: CC(=O)c1ccc(Br)cc1
In words: purified protein, by the assay type. To be noted: other: NADPH-dependent reductions, pH 7.0, 0.2 mM NADPH, partially purified enzyme, 30.0 °C.

Substrate in data set [10]: CCCCCC(=O)CC
In words: purified protein, by the assay type. To be noted: other: NADPH-dependent reductions, pH 7.0, 0.2 mM NADPH, partially purified enzyme, 30.0 °C.

Substrate in data set [11]: NC(=O)c1ccc[n+]([C@@H]2O[C@H](COP(=O)(O)OP(=O)(O)OC[C@H]3O[C@@H](n4cnc5c(N)ncnc54)[C@H](OP(=O)(O)O)[C@@H]3O)[C@@H](O)[C@H]2O)c1
In words: cells, lysate or membranes named. The following applies: other: NADP+-dependent oxidations; 30.0 °C.

Substrate in data set [12]: CC(C)O
Nature of the data set: cells, lysate or membranes named. The following applies: other: NADP+-dependent oxidations; 30.0 °C.

Substrate in data set [13]: CC(O)c1ccccc1
Nature of the data set: cells, lysate or membranes named. The following applies: other: NADP+-dependent oxidations; 30.0 °C.

Substrate in data set [14]: C[C@@H](O)c1ccccc1
Nature of the data set: cells, lysate or membranes named. To be noted: other: NADP+-dependent oxidations; 30.0 °C.

B1: phenylethanol dehydrogenase (Lentilactobacillus kefiri) (protein)
chain: TDRLKGKVAIVTGGTLGIGLAIADKFVEEGAKVVITGRHADVGEKAAKSIGGTDVIRFVQHDASDEAGWTKLFDTTEEAFGPVTTVVNNAGIAVSKSVEDTTTEEWRKLLSVNLDGVFFGTRLGIQRMKNKGLGASIINMSSIEGFVGDPTLGAYNASKGAVRIMSKSAALDCALKDYDVRVNTVHPGYIKTPLVDDLEGAEEMMSQRTKTPMGHIGEPNDIAWICVYLASDESKFATGAEFVVDGGYTAQ
On to B1, for which the Km (as a rule, the concentration of substrate that gives half-maximal velocity) was found to be 3380 µM in data set [1]; 251 µM in [2]; 9400 µM in data set [3]; 390 µM in data set [4]; 140 µM in data set [5]; 600 µM in [6]. Also, the Km in data set [7] is 2740 µM; in data set [8] it was 37900 µM; in data set [9], 372 µM; in data set [10], 681 µM; in data set [11], 190 µM; in [12], 117 µM. For the same protein, the Km in data set [13] came to 4300 µM; in [14], 3500 µM.
